From the supplement of paper PMC9428881
± gives the standard error.

Assay: background-corrected fluorescence of 3'-dye-labeled ssDNA relative to brightest sequence (3'-GCGCG) (fraction); higher = brighter dye fluorescence (less quenching)
Procedure, shortened: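 By light-directed phosphoramidite synthesis, single-stranded DNA ending in a 3' Cy3 or Cy5 dye beside each of 1024 permuted pentamers was built on glass slides. Scanning at 532 or 635 nm took place before and after overnight ethylenediamine/ethanol deprotection. Data are means of 10 features per array over at least 3 syntheses. Fluorescence is corrected for unlabeled-oligo background and scaled to the brightest sequence.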

Sequence | background-corrected fluorescence (dye: Cy3 (3' terminal)) | background-corrected fluorescence (dye: Cy5 (3' terminal))
TTTTTTGATCAGCATGATGCTTTTTTTTTTTTTTTCGTCA [ACTGC] | 0.547 ± 0.03 | 0.378 ± 0.032
TTTTTTGATCAGCATGCGCATTTTTTTTTTTTTTTCGTAT [TATGC] | 0.555 ± 0.018 | 0.401 ± 0.064
TTTTTTGATCAGCATGCTCATTTTTTTTTTTTTTTCGTAG [GATGC] | 0.615 ± 0.024 | 0.435 ± 0.03
TTTTTTGATCAGCATGCTGATTTTTTTTTTTTTTTCGTAC | 0.49 ± 0.01 | 0.376 ± 0.053
TTTTTTGATCAGCATGCTGCTTTTTTTTTTTTTTTCGTAA [AATGC] | 0.553 ± 0.045 | 0.428 ± 0.024
TTTTTTGATCATCAGCAGCATTTTTTTTTTTTTTTCGGTT [TTGGC] | 0.545 ± 0.0074 | 0.427 ± 0.024
TTTTTTGATCATCAGCATCATTTTTTTTTTTTTTTCGGTG [GTGGC] | 0.574 ± 0.02 | 0.484 ± 0.031
TTTTTTGATCATCAGCATGATTTTTTTTTTTTTTTCGGTC [CTGGC] | 0.506 ± 0.035 | 0.407 ± 0.042
TTTTTTGATCATCAGCATGCTTTTTTTTTTTTTTTCGGTA [ATGGC] | 0.589 ± 0.071 | 0.488 ± 0.029
TTTTTTGATCATCATCAGCATTTTTTTTTTTTTTTCGGGT [TGGGC] | 0.7 ± 0.013 | 0.616 ± 0.068
TTTTTTGATCATCATCATCATTTTTTTTTTTTTTTCGGGG [GGGGC] | 0.673 ± 0.024 | 0.65 ± 0.044
TTTTTTGATCATCATCATGATTTTTTTTTTTTTTTCGGGC | 0.576 ± 0.032 | 0.487 ± 0.024
TTTTTTGATCATCATCATGCTTTTTTTTTTTTTTTCGGGA [AGGGC] | 0.7 ± 0.0078 | 0.715 ± 0.052
TTTTTTGATCATCATGAGCATTTTTTTTTTTTTTTCGGCT | 0.583 ± 0.016 | 0.431 ± 0.021
TTTTTTGATCATCATGATCATTTTTTTTTTTTTTTCGGCG [GCGGC] | 0.704 ± 0.027 | 0.611 ± 0.053
TTTTTTGATCATCATGATGATTTTTTTTTTTTTTTCGGCC [CCGGC] | 0.465 ± 0.022 | 0.364 ± 0.027
TTTTTTGATCATCATGATGCTTTTTTTTTTTTTTTCGGCA [ACGGC] | 0.612 ± 0.015 | 0.493 ± 0.034
TTTTTTGATCATCATGCGCATTTTTTTTTTTTTTTCGGAT [TAGGC] | 0.593 ± 0.017 | 0.472 ± 0.033
TTTTTTGATCATCATGCTCATTTTTTTTTTTTTTTCGGAG [GAGGC] | 0.603 ± 0.02 | 0.487 ± 0.024
TTTTTTGATCATCATGCTGATTTTTTTTTTTTTTTCGGAC [CAGGC] | 0.531 ± 0.011 | 0.389 ± 0.034
TTTTTTGATCATCATGCTGCTTTTTTTTTTTTTTTCGGAA [AAGGC] | 0.656 ± 0.032 | 0.548 ± 0.058
TTTTTTGATCATGAGCAGCATTTTTTTTTTTTTTTCGCTT | 0.51 ± 0.017 | 0.409 ± 0.047
TTTTTTGATCATGAGCATCATTTTTTTTTTTTTTTCGCTG [GTCGC] | 0.534 ± 0.014 | 0.423 ± 0.043

Sequence | background-corrected fluorescence (dye: Cy3 (3' terminal)) | background-corrected fluorescence (dye: Cy5 (3' terminal))
TTTTTTGATCATGAGCATGATTTTTTTTTTTTTTTCGCTC [CTCGC] | 0.452 ± 0.039 | 0.318 ± 0.024
TTTTTTGATCATGAGCATGCTTTTTTTTTTTTTTTCGCTA [ATCGC] | 0.549 ± 0.026 | 0.399 ± 0.027
TTTTTTGATCATGATCAGCATTTTTTTTTTTTTTTCGCGT [TGCGC] | 0.783 ± 0.029 | 0.697 ± 0.048
TTTTTTGATCATGATCATCATTTTTTTTTTTTTTTCGCGG [GGCGC] | 0.814 ± 0.019 | 0.793 ± 0.047
TTTTTTGATCATGATCATGATTTTTTTTTTTTTTTCGCGC | 0.759 ± 0.032 | 0.66 ± 0.052
TTTTTTGATCATGATCATGCTTTTTTTTTTTTTTTCGCGA [AGCGC] | 0.823 ± 0.027 | 0.792 ± 0.034
TTTTTTGATCATGATGAGCATTTTTTTTTTTTTTTCGCCT [TCCGC] | 0.488 ± 0.028 | 0.369 ± 0.03
TTTTTTGATCATGATGATCATTTTTTTTTTTTTTTCGCCG [GCCGC] | 0.647 ± 0.017 | 0.506 ± 0.046
TTTTTTGATCATGATGATGATTTTTTTTTTTTTTTCGCCC [CCCGC] | 0.406 ± 0.032 | 0.308 ± 0.055
TTTTTTGATCATGATGATGCTTTTTTTTTTTTTTTCGCCA [ACCGC] | 0.49 ± 0.03 | 0.423 ± 0.051
TTTTTTGATCATGATGCGCATTTTTTTTTTTTTTTCGCAT [TACGC] | 0.517 ± 0.0084 | 0.395 ± 0.021
TTTTTTGATCATGATGCTCATTTTTTTTTTTTTTTCGCAG [GACGC] | 0.595 ± 0.025 | 0.446 ± 0.029
TTTTTTGATCATGATGCTGATTTTTTTTTTTTTTTCGCAC [CACGC] | 0.435 ± 0.025 | 0.342 ± 0.06
TTTTTTGATCATGATGCTGCTTTTTTTTTTTTTTTCGCAA [AACGC] | 0.552 ± 0.031 | 0.443 ± 0.035
TTTTTTGATCATGCGCAGCATTTTTTTTTTTTTTTCGATT [TTAGC] | 0.602 ± 0.031 | 0.404 ± 0.025
TTTTTTGATCATGCGCATCATTTTTTTTTTTTTTTCGATG [GTAGC] | 0.552 ± 0.021 | 0.438 ± 0.024
TTTTTTGATCATGCGCATGATTTTTTTTTTTTTTTCGATC [CTAGC] | 0.457 ± 0.018 | 0.354 ± 0.027
TTTTTTGATCATGCGCATGCTTTTTTTTTTTTTTTCGATA [ATAGC] | 0.595 ± 0.036 | 0.427 ± 0.025
TTTTTTGATCATGCTCAGCATTTTTTTTTTTTTTTCGAGT [TGAGC] | 0.684 ± 0.026 | 0.477 ± 0.058
TTTTTTGATCATGCTCATCATTTTTTTTTTTTTTTCGAGG [GGAGC] | 0.723 ± 0.029 | 0.534 ± 0.035
TTTTTTGATCATGCTCATGATTTTTTTTTTTTTTTCGAGC | 0.547 ± 0.018 | 0.425 ± 0.035
TTTTTTGATCATGCTCATGCTTTTTTTTTTTTTTTCGAGA [AGAGC] | 0.695 ± 0.032 | 0.53 ± 0.037
TTTTTTGATCATGCTGAGCATTTTTTTTTTTTTTTCGACT [TCAGC] | 0.488 ± 0.019 | 0.363 ± 0.028

Sequence | background-corrected fluorescence (dye: Cy3 (3' terminal)) | background-corrected fluorescence (dye: Cy5 (3' terminal))
TTTTTTGATCATGCTGATCATTTTTTTTTTTTTTTCGACG [GCAGC] | 0.602 ± 0.013 | 0.491 ± 0.024
TTTTTTGATCATGCTGATGATTTTTTTTTTTTTTTCGACC [CCAGC] | 0.4 ± 0.016 | 0.324 ± 0.03
TTTTTTGATCATGCTGATGCTTTTTTTTTTTTTTTCGACA [ACAGC] | 0.512 ± 0.028 | 0.429 ± 0.053
TTTTTTGATCATGCTGCGCATTTTTTTTTTTTTTTCGAAT [TAAGC] | 0.599 ± 0.04 | 0.402 ± 0.026
TTTTTTGATCATGCTGCTCATTTTTTTTTTTTTTTCGAAG [GAAGC] | 0.609 ± 0.013 | 0.463 ± 0.021
TTTTTTGATCATGCTGCTGATTTTTTTTTTTTTTTCGAAC [CAAGC] | 0.48 ± 0.039 | 0.366 ± 0.022
TTTTTTGATCATGCTGCTGCTTTTTTTTTTTTTTTCGAAA [AAAGC] | 0.576 ± 0.032 | 0.475 ± 0.057
TTTTTTGATGAGCAGCAGCATTTTTTTTTTTTTTTCCTTT | 0.492 ± 0.016 | 0.347 ± 0.023
TTTTTTGATGAGCAGCATCATTTTTTTTTTTTTTTCCTTG [GTTCC] | 0.547 ± 0.021 | 0.378 ± 0.025
TTTTTTGATGAGCAGCATGATTTTTTTTTTTTTTTCCTTC [CTTCC] | 0.362 ± 0.03 | 0.288 ± 0.03
TTTTTTGATGAGCAGCATGCTTTTTTTTTTTTTTTCCTTA [ATTCC] | 0.513 ± 0.023 | 0.369 ± 0.029
TTTTTTGATGAGCATCAGCATTTTTTTTTTTTTTTCCTGT [TGTCC] | 0.584 ± 0.0059 | 0.459 ± 0.038
TTTTTTGATGAGCATCATCATTTTTTTTTTTTTTTCCTGG [GGTCC] | 0.557 ± 0.023 | 0.47 ± 0.054
TTTTTTGATGAGCATCATGATTTTTTTTTTTTTTTCCTGC [CGTCC] | 0.485 ± 0.028 | 0.394 ± 0.032
TTTTTTGATGAGCATCATGCTTTTTTTTTTTTTTTCCTGA [AGTCC] | 0.592 ± 0.034 | 0.499 ± 0.086
TTTTTTGATGAGCATGAGCATTTTTTTTTTTTTTTCCTCT [TCTCC] | 0.431 ± 0.012 | 0.312 ± 0.026
TTTTTTGATGAGCATGATCATTTTTTTTTTTTTTTCCTCG [GCTCC] | 0.471 ± 0.02 | 0.393 ± 0.057
TTTTTTGATGAGCATGATGATTTTTTTTTTTTTTTCCTCC | 0.342 ± 0.03 | 0.273 ± 0.021
TTTTTTGATGAGCATGATGCTTTTTTTTTTTTTTTCCTCA [ACTCC] | 0.493 ± 0.0056 | 0.377 ± 0.042
TTTTTTGATGAGCATGCGCATTTTTTTTTTTTTTTCCTAT [TATCC] | 0.486 ± 0.018 | 0.361 ± 0.028
TTTTTTGATGAGCATGCTCATTTTTTTTTTTTTTTCCTAG [GATCC] | 0.532 ± 0.019 | 0.414 ± 0.023
TTTTTTGATGAGCATGCTGATTTTTTTTTTTTTTTCCTAC [CATCC] | 0.45 ± 0.02 | 0.306 ± 0.042
